{"source": "patent US20110091994A1", "about": "“Methods for Screening Compounds for Treating and/or Preventing an Hepatitis C Virus Infection” (priority 2008, published 2011);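 for IMAP Y2H IMAP1 (number of IST): yeast two-hybrid screens using HCV genotype 1b proteins fused to Gal4-DB as baits against prey cDNA libraries from human spleen and foetal brain, IMAP1 via transformation and IMAP2 via mating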;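 for IMAP Y2H IMAP2 (number of IST): yeast two-hybrid screens using HCV genotype 1b proteins fused to Gal4-DB as baits against prey cDNA libraries from human spleen and foetal brain, IMAP1 via transformation and IMAP2 via mating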;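 for Interaction with viral protein: yeast two-hybrid screens using HCV genotype 1b proteins fused to Gal4-DB as baits against prey cDNA libraries from human spleen and foetal brain, IMAP1 via transformation and IMAP2 via mating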", "molecules": {"B1": {"name": "CCDC66 (protein, UniProt A2RUB6 1-948, looked up)", "Coiled-coil domain-containing …": "MNLGDGLKLETELLDGKTKLILSPYEHKSKISVKMGNKAKIAKCPLRTKTGHILKSTQDTCIGSEKLLQKKPVGSETSQAKGEKNGMTFSSTKDLCKQCIDKDCLHIQKEISPATPNMQKTRNTVNTSLVGKQKPHKKHITAENMKSSLVCLTQDQLQQILMTVNQGNRSLSLTENGKEAKSQYSLYLNSISNQPKDENIMGLFKKTEMVSSVPAENKSVLNEHQETSKQCEQKIAIENEWKPADIFSTLGERECDRSSLEAKKAQWRKELDEQVALKKKEKEVSEKWNDPWKKSESDKIIWEKHQILDQSRETVLLEHPFSAVKQELQRKWIEELNKQIEDDRQRKIEEKIIYSKGEEHDRWAMHFDSLKSYPGSQSQLFSQSTHKQPEYFCVSPDTQELADVSSVCTPTTGSQVEPSEEEHIAKPIKDVVMANSKKTNFLRSMTALLDPAQIEERDRRRQKQLEHQKAITAQVEEKRRKKQLEEEQRKKEEQEEELRLAQEREEMQKQYEEDILKQKQKEEIMTLKTNELFQTMQRAQELAQRLKQEQRIRELAQKGHDTSRLIKNLGVDTIQMEYNASNISNSRHDSDEISGKMNTYMNSTTSKKDTGVQTDDLNIGIFTNAESHCGSLMERDITNCSSPEISAELIGQFSTKKNKQELTQDKGASLEKENNRCNDQCNQFTRIEKQTKHMKKYPKRPDWNINKPPKRYIPASEKYPKQLQKQREEKKVRRQMELLHLVEKNNPGHLSQNRGISPEIFHSSHQETESKLRWHLVKKEEEPLNIHSFSKERSPSSPVPVVKNRTQQTQNTLHLPLKNSSYERENLISGSNQTELSSGISESSHFIPYVRTNEIYYLDPDAPLSGPSTQDPQYQNSQDCGQKRQLFDSDCVRDPLLNPNMVKNRDRQQAILKGLSELRQGLLQKQKELESSLLPLAENQEESFGSSF"}, "B2": {"name": "CCHCR1 (protein, UniProt Q8TD31 1-782, looked up)", "Coiled-coil alpha-helical rod …": "MFPPSGSTGLIPPSHFQARPLSTLPRMAPTWLSDIPLVQPPGHQDVSERRLDTQRPQVTMWERDVSSDRQEPGRRGRSWGLEGSQALSQQAEVIVRQLQELRRLEEEVRLLRETSLQQKMRLEAQAMELEALARAEKAGRAEAEGLRAALAGAEVVRKNLEEGSQRELEEVQRLHQEQLSSLTQAHEEALSSLTSKAEGLEKSLSSLETRRAGEAKELAEAQREAELLRKQLSKTQEDLEAQVTLVENLRKYVGEQVPSEVHSQTWELERQKLLETMQHLQEDRDSLHATAELLQVRVQSLTHILALQEEELTRKVQPSDSLEPEFTRKCQSLLNRWREKVFALMVQLKAQELEHSDSVKQLKGQVASLQEKVTSQSQEQAILQRSLQDKAAEVEVERMGAKGLQLELSRAQEARRRWQQQTASAEEQLRLVVNAVSSSQIWLETTMAKVEGAAAQLPSLNNRLSYAVRKVHTIRGLIARKLALAQLRQESCPLPPPVTDVSLELQQLREERNRLDAELQLSARLIQQEVGRAREQGEAERQQLSKVAQQLEQELQQTQESLASLGLQLEVARQGQQESTEEAASLRQELTQQQELYGQALQEKVAEVETRLREQLSDTERRLNEARREHAKAVVSLRQIQRRAAQEKERSQELRRLQEEARKEEGQRLARRLQELERDKNLMLATLQQEGLLSRYKQQRLLTVLPSLLDKKKSVVSSPRPPECSASAPVAAAVPTRESIKGSLSVLLDDLQDLSEAISKEEAVCQGDNLDRCSSSNPQMSS"}, "B3": {"name": "CD5L (protein, UniProt O43866 20-347, looked up)", "CD5 antigen-like": "SPSGVRLVGGLHRCEGRVEVEQKGQWGTVCDDGWDIKDVAVLCRELGCGAASGTPSGILYEPPAEKEQKVLIQSVSCTGTEDTLAQCEQEEVYDCSHDEDAGASCENPESSFSPVPEGVRLADGPGHCKGRVEVKHQNQWYTVCQTGWSLRAAKVVCRQLGCGRAVLTQKRCNKHAYGRKPIWLSQMSCSGREATLQDCPSGPWGKNTCNHDEDTWVECEDPFDLRLVGGDNLCSGRLEVLHKGVWGSVCDDNWGEKEDQVVCKQLGCGKSLSPSFRDRKCYGPGVGRIWLDNVRCSGEEQSLEQCQHRFWGFHDCTHQEDVAVICSG"}, "B4": {"name": "CHPF (protein, UniProt Q8IZ52 1-775, looked up)", "Chondroitin sulfate synthase 2": "MRASLLLSVLRPAGPVAVGISLGFTLSLLSVTWVEEPCGPGPPQPGDSELPPRGNTNAARRPNSVQPGAEREKPGAGEGAGENWEPRVLPYHPAQPGQAAKKAVRTRYISTELGIRQRLLVAVLTSQTTLPTLGVAVNRTLGHRLERVVFLTGARGRRAPPGMAVVTLGEERPIGHLHLALRHLLEQHGDDFDWFFLVPDTTYTEAHGLARLTGHLSLASAAHLYLGRPQDFIGGEPTPGRYCHGGFGVLLSRMLLQQLRPHLEGCRNDIVSARPDEWLGRCILDATGVGCTGDHEGVHYSHLELSPGEPVQEGDPHFRSALTAHPVRDPVHMYQLHKAFARAELERTYQEIQELQWEIQNTSHLAVDGDQAAAWPVGIPAPSRPASRFEVLRWDYFTEQHAFSCADGSPRCPLRGADRADVADVLGTALEELNRRYHPALRLQKQQLVNGYRRFDPARGMEYTLDLQLEALTPQGGRRPLTRRVQLLRPLSRVEILPVPYVTEASRLTVLLPLAAAERDLAPGFLEAFATAALEPGDAAAALTLLLLYEPRQAQRVAHADVFAPVKAHVAELERRFPGARVPWLSVQTAAPSPLRLMDLLSKKHPLDTLFLLAGPDTVLTPDFLNRCRMHAISGWQAFFPMHFQAFHPAVAPPQGPGPPELGRDTGRFDRQAASEACFYNSDYVAARGRLAAASEQEEELLESLDVYELFLHFSSLHVLRAVEPALLQRYRAQTCSARLSEDLYHRCLQSVLEGLGSRTQLAMLLFEQEQGNST"}, "B5": {"name": "CORO1B (protein, UniProt Q9BR76 1-489, looked up)", "Coronin-1B": "MSFRKVVRQSKFRHVFGQPVKNDQCYEDIRVSRVTWDSTFCAVNPKFLAVIVEASGGGAFLVLPLSKTGRIDKAYPTVCGHTGPVLDIDWCPHNDEVIASGSEDCTVMVWQIPENGLTSPLTEPVVVLEGHTKRVGIIAWHPTARNVLLSAGCDNVVLIWNVGTAEELYRLDSLHPDLIYNVSWNHNGSLFCSACKDKSVRIIDPRRGTLVAEREKAHEGARPMRAIFLADGKVFTTGFSRMSERQLALWDPENLEEPMALQELDSSNGALLPFYDPDTSVVYVCGKGDSSIRYFEITEEPPYIHFLNTFTSKEPQRGMGSMPKRGLEVSKCEIARFYKLHERKCEPIVMTVPRKSDLFQDDLYPDTAGPEAALEAEEWVSGRDADPILISLREAYVPSKQRDLKISRRNVLSDSRPAMAPGSSHLGAPASTTTAADATPSGSLARAGEAGKLEEVMQELRALRALVKEQGDRICRLEEQLGRMENGDA"}, "B6": {"name": "CTGF (protein, UniProt P29279 27-349, looked up)", "CCN family member 2": "QNCSGPCRCPDEPAPRCPAGVSLVLDGCGCCRVCAKQLGELCTERDPCDPHKGLFCHFGSPANRKIGVCTAKDGAPCIFGGTVYRSGESFQSSCKYQCTCLDGAVGCMPLCSMDVRLPSPDCPFPRRVKLPGKCCEEWVCDEPKDQTVVGPALAAYRLEDTFGPDPTMIRANCLVQTTEWSACSKTCGMGISTRVTNDNASCRLEKQSRLCMVRPCEADLEENIKKGKKCIRTPKISKPIKFELSGCTSMKTYRAKFCGVCTDGRCCTPHRTTTLPVEFKCPDGEVMKKNMMFIKTCACHYNCPGDNDIFESLYYRKMYGDMA"}}}
{"molecular_target": "T1, HCV proteins (Hepatitis C virus genotype 1b, UniProt Q9WMX2)", "T1 construct": "expressed in transfected cells", "T1 sequence (Q9WMX2 1027-1657)": "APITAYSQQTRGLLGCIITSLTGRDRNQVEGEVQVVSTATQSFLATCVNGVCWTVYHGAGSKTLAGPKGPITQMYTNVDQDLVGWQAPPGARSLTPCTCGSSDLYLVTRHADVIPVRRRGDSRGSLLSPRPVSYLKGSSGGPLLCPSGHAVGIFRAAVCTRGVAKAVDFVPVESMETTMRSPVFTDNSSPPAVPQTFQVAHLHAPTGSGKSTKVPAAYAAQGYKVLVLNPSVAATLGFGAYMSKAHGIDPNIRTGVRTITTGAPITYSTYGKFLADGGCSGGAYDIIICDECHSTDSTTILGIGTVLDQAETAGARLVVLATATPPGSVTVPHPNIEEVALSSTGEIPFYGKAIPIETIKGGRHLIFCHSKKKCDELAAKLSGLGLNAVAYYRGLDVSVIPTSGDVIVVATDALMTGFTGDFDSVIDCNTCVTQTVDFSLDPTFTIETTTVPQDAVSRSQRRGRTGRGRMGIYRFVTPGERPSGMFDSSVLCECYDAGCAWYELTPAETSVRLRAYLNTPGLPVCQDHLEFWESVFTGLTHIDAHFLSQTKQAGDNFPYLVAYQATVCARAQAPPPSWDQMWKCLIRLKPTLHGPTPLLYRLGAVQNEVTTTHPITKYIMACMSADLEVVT", "test": "Validation by Y2H pairwise matrices;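 note: yeast two-hybrid pairwise tests of interactions first found in Y2H screens of HCV bait proteins against human cDNA libraries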", "assay_type": "binding", "settings": "validation of interaction with HCV protein NS3", "procedure": "A comprehensive interactome map between HCV and cellular proteins was generated by Y2H screens. Twenty seven constructs encoding full-length HCV mature proteins or discrete domains were cloned using a recombination-based cloning system (10) (FIG. 6). Four independent screens were performed with each HCV bait protein, probing two distinct human cDNA libraries (Supplementary Methods). […] Two validation methods were used to assess the confidence of the IMAP Y2H dataset."}
{"molecule": "B1", "Y2H matrices": "+"}
{"molecule": "B2", "Y2H matrices": "+"}
{"molecule": "B3", "Y2H matrices": "+"}
{"molecule": "B4", "Y2H matrices": "+"}
{"molecule": "B5", "Y2H matrices": "+"}
{"molecule": "B6", "Y2H matrices": "+"}
{"molecular_target": "T2, HCV ORFs (Gal4-DB fusions) (Hepatitis C virus genotype 1b, UniProt Q9WMX2)", "T2 construct": "expressed in transfected cells; host or cells: Saccharomyces cerevisiae MAV203 (IMAP1) / AH109 (IMAP2)", "T2 sequence (Q9WMX2 1027-1657)": "as above", "test": "not given", "assay_type": "binding, HCV genotype 1b, isolate con1", "settings": "HCV protein NS3 as bait; human protein as prey"}
{"molecule": "B1", "IMAP Y2H IMAP1 (number of IST)": 1, "IMAP Y2H IMAP2 (number of IST)": 4}
{"molecule": "B2", "IMAP Y2H IMAP1 (number of IST)": 1, "IMAP Y2H IMAP2 (number of IST)": 2}
{"molecule": "B3", "IMAP Y2H IMAP1 (number of IST)": 1, "IMAP Y2H IMAP2 (number of IST)": 1}
{"molecule": "B4", "IMAP Y2H IMAP1 (number of IST)": 1}
{"molecule": "B5", "IMAP Y2H IMAP1 (number of IST)": 8}
{"molecule": "B6", "IMAP Y2H IMAP1 (number of IST)": 1}
{"tested_on": "HCV ORFs (Gal4-DB fusions)", "test": "not given", "assay_type": "binding, HCV genotype 1b, isolate con1", "settings": "human protein listed by gene symbol; the value names the HCV protein it interacts with"}
{"molecule": "B1", "Interaction with viral protein": "NS3"}
{"molecule": "B2", "Interaction with viral protein": "NS3"}
{"molecule": "B3", "Interaction with viral protein": "NS3"}
{"molecule": "B4", "Interaction with viral protein": "NS3"}
{"molecule": "B5", "Interaction with viral protein": "NS3"}
{"molecule": "B6", "Interaction with viral protein": "NS3"}
